Here are results for 14 sequences from the DeepSol protein solubility set.

This data set can be described thus: soluble on expression in E. coli; label from the status in PepcDB or PDB records.
In the case of “MGSDKIHHHHHHMVEVLERLGCETVLPEKQICCGQPTYNSGYSKDSMKTFKNEIDALLSIDADYIVGPSGSCVFMIKEYKDIFKDDPEYGPKAAEIDSKIYEFTQFIYRVLKVVDCGAELDAKVTVHRSCHMTRLIGERTAPFVLLDHVKDIERVPLKNVQLCCGFGGTFSAKRPELSVEMVDEKVKNIVDTDAEILIGTEESCLMNIVGRMNRLGYKIKAMHIAEVLNHNVDINRIKYIKDTDHVVVPANGEGVF”, the “soluble on expression in E. coli” value is “not soluble”.
Next, “MKSQFNQKLEDKFQRNAEQVVSLVKERMQLYENALWSSVAYIDADETDITHTKWLAYSKSLKIDLTYPGINGIGIIYNIQADQLDDYIEKQRVLRPNYAIHPSHNESEYWPITYVEPAAPNKKAIGLDMAFETNRYSSIKKARDTGVAQLTGPITLVQDAKKTPGFLFYTPFYKNGTKPESTEARRDAIDGVTYAPFIMKNLMQGTLAEKNRHVSIQIRDAGDLLFDDHDDESVLDADANPLFTKEQDISLYGRTWSFTIQSNLDFRDESAANQLEHHHHHH”: “not soluble”.
The result for “MRNIAVILAGGSGQRLGENIPKQFLKIAGKKVIEHTITVFQNHSLIDEIVVVVHPDYIRDVEDISLRNSFNKLKKILLGGKERYHSSLAAINAYDEEVNLLFHDSVRPLVNERIINDCIRALLTYNAVDVAIPTTDTIIQVDDNNEIVKIPSRILLRNGQTPQAFKRSVIKAAYEKALLDPLFKTTDDCGVVLKYLPDESIYVVNGEQFNMKLTYKEDIFLLDKLFQLRSIRNQPTLLEKSEMEELQGKVVVVFGGTYGIGQDICEICREYKTSLYVYSRSTGVDVSNSQSVRRVLSEIFDKEGRIDWIVNTAGILDKQPLANMSYEAVHQSIDVNYLGNIIVAKESFFYLKESKGSLLFFTSSSYTRGRALYSLYSSSKAAIVNFVQALSEEWFEYGIRVNCINPERTKTPMRIQNFGNEPEDTLLEPKVVAIVSVNTLLSEMTGEVVDVKRLEHHHHHH” reads “not soluble”; that for “MGSDKIHHHHHHLGFILDKSGLIPPSIDFPELIKAGREQLHRETDYEQEARHLDMFFKLMAGDKCFEVPRINQEFTTDKTLAMEFKEGVTIDQIVSANYNVKNKAVLNLIDLFFRELFEFNLIQSDPNYANFLFDEKNGKIILLDFGATIPVSSDTLAKFKALFNETLGQNKKSVENAMYQLGILDKGLPSHILNELTDIYWDSTEPIRKNKMFDFGNSNILERMQELSSEIIVHRKKIKIPPFDILSIQRKIGGIFLLARRFEAKINLNKIFEK”, “not soluble”; that for “RLPKKHYTDSLDYALFKELIRVSVASNNKQILDYYEHHCHKKNPATACQYGYVLALLNNNNFQKAAEKLNPLLLQDNSNLNFQIAMAQAELGLSQYQSALSRLAELQNNFPDNYAALMAYAQGLLTANQPQKATAVLLKGSRQYKEDLPLCRELARAQA”, “not soluble”.
For the sequence “MNIEEAKKLIDKQSIGKGGVGDIPVVKTHIVKVLLDQIDQPQPEVPRFVADWYEKHKDSLECDLYLYHMSIYDEEVEKDDFYYWMQTSKNPVYTLINMHQFGYTIQKEKLYTVEIPNPNERQLSFVLMRQLSGNVSIKVMHRDNLDLLKTDNDLQLTESEIRKDFDWAWQFREEVVE”, the “soluble on expression in E. coli” value is “not soluble”.
Regarding “MGSDKIHHHHHHMLEVIDVWKKYPPKTQALREVSFEAEEGSITAVFGENGSGKTTLLKVIASFLIPDRGKVLIDSVNIVEKPSFAVEKVSISTGYERSFYYRLSVEENLKFFGMLNDLLGKTLKRETERVMKELGLLECRKKRYMELSTGYKKRVDVARALMKKASIYIFDEPCSGVDLRTRLKIHEIMKRLKESGRIVIFASHDLEDLKIADRVIVLKKGEKVLEFSPKKEDLAAVLRGILEIQAFPGD”, the “soluble on expression in E. coli” value is on record as “not soluble”.
The result for “MKNKLLVLSLGALCVSQIWESNRASAVVSGEKNPYVSESLKLTNNKNKSRTVEEYKKSLDDLIWSFPNLDNERFDNPEYKEAMKKYQQRFMAEDEALKKFFSEEKKIKNGNTDNLDYLGLSHERYESVFNTLKKQSEEFLKEIEDIKKDNPELKDFNEEEQLKCDLELNKLENQILMLGKTFYQNYRDDVESLYSKLDLIMGYKDEERANKKAVNKRMLENKKEDLETIIDEFFSDIDKTRPNNIPVLEDEKQEEKNHKNMAQLKSDTEAAKSDESKRSKRSKRSLNTQNHKPASQEVSEQQKAEYDKRAEERKARFLDNQKIKKTPVVSLEYDFEHKQRIDNENDKKLVVSAPTKKPTSPTTYTETTTQVPMPTVERQTQQQIIYNAPKQLAGLNGESHDFTTTHQSPTTSNHTHNNVVEFEETSALPGRKSGSLVGISQIDSSHLTEREKRVIKREHVREAQKLVDNYKDTHSYKDRINAQQKVNTLSEGHQKRFNKQINKVYNGK” reads “not soluble”; that for “MVKVTYDIPTCEDYCALRINAGMSPKTREAAEKGLPNALFTVTLYDKDRLIGMGRVIGDGGTVFQIVDIAVSKSYQGQDYGSLIMEHIMKYIKNVSVESAYVSLIADYPADKLYAKFGFMPTEPDSGGMYIKY”, “soluble”; that for “GPGSMEGPFLSRSIQYVERWLAEIVATKGTRAAATGSSEKAVAQKRGKATATAAAETGATSMSKCRFVVGRVNSVRPHPESQKLYIEEIDLGEEGGKCRTILSGLQEYVKQEDFLNRLVLVIANLEPRKIGGIPSEGMVLCASCNDEGSRSVVLLDVPEGTPVGERILFEGHEGPYEPVLKKKLAKHFEEVAAELRTNDKGEVVWRDMPFRTSCGIITASIPNGSVS”, “not soluble”.
Next, “MGSDKIHHHHHHMYTMFYTSKTALSANQSKLDIISNNIANSDSTGYKKINMEYSDLVDEVLNRPSYPTNGNDISTGTGAKATAPMRNYEQGALAPTDSKSNLAIDGEGFFRVIRKDGTYAYTRNGGFNVDALGKIVDDNGNILDVQFDAGYNYNNTNIDSTNLTVSRNGELFVDNKKIGKINLYQPIGTQNFISEGDSLFVATDAAQIKQVEKVDIVQGYRERSNVSLQEEFVDLIATQRAFQMNSKGIKTADEMWQIANNLRAK”: “not soluble”; “MSLSKSMARARNRCLPMNFRAEDLASGILRERVKVGASLADVDPMNIDKSVRFDSIGGLSHHIHALKEMVVFPLLYPEIFEKFKIQPPRGCLFYGPPGTGKTLVARALANECSQGDKKVAFFMRKGADCLSKWVGESERQLRLLFDQAYLMRPSIIFFDEIDGLAPVRSSRQDQIHSSIVSTLLALMDGLDNRGEIVVIGATNRLDSIDPALRRPGRFDREFLFNLPDQKARKHILQIHTRDWNPKLSDAFLGELAEKCVGYCGADIKALCTEAALIALRRRYPQIYASSHKLQLDVSSIVLSAQDFYHAMQNIVPASQRAVMSSGHALSPIIRPLLERSFNNILAVLQKVFPHAEISQSDKKEDIETLILEDSEDENALSIFETNCHSGSPKKQSSSAAIHKPYLHFTMSPYHQPTSYRPRLLLSGERGSGQTSHLAPALLHTLERFSVHRLDLPALYSVSAKTPEESCAQIFREARRTVPSIVYMPHIGDWWEAVSETVRATFLTLLQDIPSFSPIFLLSTSETMYSELPEEVKCIFRIQYEEVLYIQRPIEEDRRKFFQELILNQASMAPPRRKHAALCAMEVLPLALPSPPREGHHHHHH”: “not soluble”.
Next, “MGSDKIHHHHHHLFTSLVKQAEEMGLLDLSSVAIDATKVEAYEKSVPRKNIIQNGNAADWGIKSDTNGNPIKWFGYKLHIGTDVRSGLPIAMKVTPANYSDSSVALELVEKCCANTQSKIVYFLMDAGYDHREIYSVIRDKYHAQAIIALNKRGAKQPPEGFDWDGTPICSARYRMVYWGSYQGVNKFRCPHIMGKCDCPFGSAWCSDSNYGMVVKTKVKDDPRLFSSPHRGSANWQKQYNLRTYSERCFSRFKENLGLEDGLNVRKITKVETHAYLCAITMIAAVIAINQDSSTRSSAA”: “not soluble”; “MPLSAQQLAAQKNLSYVLAEKLAQRILKGDYAPGTILPGEIELGEQYGVSRTAVREAVKTLTAKGMVLPRPRIGTRVMPQGNWNFLDQELLTWWMTEENFHQVVEHFLVMRISLEPQACLLAATLGTPEQKARLNALMEEMVALKKHFKRERWIEVDMAWHEHIYEMSANPFLISFATLFHSVYHTYFTSITYNEVVKLDLHQAIVDAIADGDGERAFQACQALLIAPNERPDN”: “not soluble”.
